Data set [1] deals with HeLa Kyoto. Nature of the data set: solubility in G1/S (NP-40 vs SDS abundance) (log2 ratio); higher = more soluble. Particulars: cell cycle stage: G1/S.
The subject of data set [2] is HeLa Kyoto. As to the kind of experiment: melting temperature (median over replicates), in situ; higher = more thermally stable.
In data set [3] the test system is HeLa Kyoto. As to the kind of experiment: solubility change mitosis vs G1/S (difference of NP-40 vs SDS log2 ratios) (log2 ratio difference); higher = more soluble in mitosis.
The subject of data set [4] is HeLa Kyoto. As to the kind of experiment: thermal stability score vs G1/S (z-score of summed log2 fold changes over temperatures); higher = more thermally stable than in G1/S.
The mark [5] stands for this setting: cell cycle stage: early G1 (4.5 h after nocodazole release).
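Wherever melting temperature (median over replicates), in situ is given: HeLa Kyoto cells synchronized by double thymidine or nocodazole block, proteins quantified by TMT10plex mass spectrometry, three independent biological replicates.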
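Wherever solubility change mitosis vs G1/S (difference of NP-40 vs SDS log2 ratios) is given: synchronized HeLa Kyoto cells (double thymidine block for G1/S, nocodazole release for mitosis), protein amounts in NP-40 versus SDS lysates quantified by mass spectrometry, three biological replicates.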
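Wherever solubility in G1/S (NP-40 vs SDS abundance) is given: HeLa Kyoto cells arrested at G1/S by double thymidine block, proteins quantified by TMT10plex mass spectrometry in mild NP-40 versus SDS extracts, three biological replicates.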
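Wherever thermal stability score vs G1/S (z-score of summed log2 fold changes over temperatures) is given: synchronized HeLa Kyoto cells, proteins quantified by TMT10plex mass spectrometry, three biological replicates, mitosis taken 0.5 h after nocodazole release, G1/S directly after double thymidine block.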

Chain of TAF15 (chain, as listed by the source): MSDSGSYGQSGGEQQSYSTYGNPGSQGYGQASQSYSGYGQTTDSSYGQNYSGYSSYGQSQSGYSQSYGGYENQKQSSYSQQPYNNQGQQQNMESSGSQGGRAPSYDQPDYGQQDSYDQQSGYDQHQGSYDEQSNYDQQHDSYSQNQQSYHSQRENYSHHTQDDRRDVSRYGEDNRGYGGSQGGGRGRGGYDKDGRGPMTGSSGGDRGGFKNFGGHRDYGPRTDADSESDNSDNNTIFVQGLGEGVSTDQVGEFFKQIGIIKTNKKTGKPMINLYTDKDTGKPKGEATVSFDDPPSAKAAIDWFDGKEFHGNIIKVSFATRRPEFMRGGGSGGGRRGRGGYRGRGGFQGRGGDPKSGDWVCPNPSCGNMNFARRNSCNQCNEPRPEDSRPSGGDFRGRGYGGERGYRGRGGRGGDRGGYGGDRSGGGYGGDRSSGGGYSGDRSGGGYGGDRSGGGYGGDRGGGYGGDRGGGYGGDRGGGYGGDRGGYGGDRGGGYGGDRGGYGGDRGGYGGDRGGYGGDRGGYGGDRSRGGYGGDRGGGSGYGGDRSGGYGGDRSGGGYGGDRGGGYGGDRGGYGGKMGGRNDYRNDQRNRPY

Turning to “MVSHGSSPSLLEALSSDFLACKICLEQLRAPKTLPCLHTYCQDCLAQLADGGRVRCPECRETVPVPPEGVASFKTNFFVNGLLDLVKARACGDLRAGKPACALCPLVGGTSTGGPATARCLDCADDLCQACADGHRCTRQTHTHRVVDLVGYRAGWYDEEARERQAAQCPQHPGEALRFLCQPCSQLLCRECRLDPHLDHPCLPLAEAVRARRPGLEGLLAGVDNNLVELEAARRVEKEALARLREQAARVGTQVEEAAEGVLRALLAQKQEVLGQLRAHVEAAEEAARERLAELEGREQVARAAAAFARRVLSLGREAEILSLEGAIAQRLRQLQGCPWAPGPAPCLLPQLELHPGLLDKNCHLLRLSFEEQQPQKDGGKDGAGTQGGEESQSRREDEPKTERQGGVQPQAGDGAQTPKEEKAQTTREEGAQTLEEDRAQTPHEDGGPQPHRGGRPNKKKKFKGRLKSISREPSPALGPNLDGSGLLPRPIFYCSFPTRMPGDKRSPRITGLCPFGPREILVADEQNRALKRFSLNGDYKGTVPVPEGCSPCSVAALQSAVAFSASARLYLINPNGEVQWRRALSLSQASHAVAALPSGDRVAVSVAGHVEVYNMEGSLATRFIPGGKASRGLRALVFLTTSPQGHFVGSDWQQNSVVICDGLGQVVGEYKGPGLHGCQPGSVSVDKKGYIFLTLREVNKVVILDPKGSLLGDFLTAYHGLEKPRVTTMVDGRYLVVSLSNGTIHIFRVRSPDS [TRIM56]”, the “solubility in G1/S (log2)” value in data set [1] is -0.379. For the same substance, the melting temperature in data set [2] (cell cycle stage: G1/S) was determined as 52.4 °C; in data set [2] (cell cycle stage: mitosis), 50.7 °C. Besides, in data set [3], the “solubility change mitosis (log2)” value worked out at 0.0648. Further, the thermal stability score in data set [4] (setting [5]) is 0.0282; in data set [4] (cell cycle stage: mitosis), 0.527.
On to ARID1B, for which, in data set [1], the “solubility in G1/S (log2)” value was -0.143. Also, the melting temperature in data set [2] (cell cycle stage: G1/S) came to 48.8 °C; in data set [2] (cell cycle stage: mitosis), 50.2 °C. In data set [3], the “solubility change mitosis (log2)” value was 0.0332. In addition, the thermal stability score was determined as 0.573 in data set [4] (setting [5]) and 1.11 in data set [4] (cell cycle stage: mitosis).
In the case of TPP2, the “solubility in G1/S (log2)” value in data set [1] is -0.0302. Also, the melting temperature in data set [2] (cell cycle stage: G1/S) amounted to 54.6 °C; in data set [2] (cell cycle stage: mitosis), 54.2 °C. Moreover, the “solubility change mitosis (log2)” value in data set [3] is -0.106. Besides, the values for the thermal stability score in data set [4] (setting [5]) and in data set [4] (cell cycle stage: mitosis) were -1.14 and -1.13, respectively.
As to “MHPAGLAAAAAGTPRLRKWPSKRRIPVSQPGMADPHQLFDDTSSAQSRGYGAQRAPGGLSYPAASPTPHAAFLADPVSNMAMAYGSSLAAQGKELVDKNIDRFIPITKLKYYFAVDTMYVGRKLGLLFFPYLHQDWEVQYQQDTPVAPRFDVNAPDLYIPAMAFITYVLVAGLALGTQDRFSPDLLGLQASSALAWLTLEVLAILLSLYLVTVNTDLTTIDLVAFLGYKYVGMIGGVLMGLLFGKIGYYLVLGWCCVAIFVFMIRTLRLKILADAAAEGVPVRGARNQLRMYLTMAVAAAQPMLMYWLTFHLVR [YIF1B]”, the “solubility in G1/S (log2)” value in data set [1] is 0.0319. The melting temperature turned out to be 53.5 °C in data set [2] (cell cycle stage: G1/S) and 54.8 °C in data set [2] (cell cycle stage: mitosis). In data set [3], the “solubility change mitosis (log2)” value is -0.373. Also, the thermal stability score in data set [4] (setting [5]) was -0.959; in data set [4] (cell cycle stage: mitosis), -1.51.
For TAF15, in data set [1], the “solubility in G1/S (log2)” value was -0.786. For the same substance, the melting temperature was 51.1 °C in data set [2] (cell cycle stage: G1/S) and 53.1 °C in data set [2] (cell cycle stage: mitosis). For the same substance, the “solubility change mitosis (log2)” value in data set [3] was found to be 0.12. Further, the thermal stability score in data set [4] (setting [5]) was -0.357; in data set [4] (cell cycle stage: mitosis), -4.49.
Take “MDTPPLSDSESESDESLVTDRELQDAFSRGLLKPGLNVVLEGPKKAVNDVNGLKQCLAEFKRDLEWVERLDVTLGPVPEIGGSEAPAPQNKDQKAVDPEDDFQREMSFYRQAQAAVLAVLPRLHQLKVPTKRPTDYFAEMAKSDLQMQKIRQKLQTKQAAMERSEKAKQLRALRKYGKKVQTEVLQKRQQEKAHMMNAIKKYQKGFSDKLDFLEGDQKPLAQRKKAGAKGQQMRKGPSAKRRYKNQKFGFGGKKKGSKWNTRESYDDVSSFRAKTAHGRGLKRPGKKGSNKRPGKRTREKMKNRTH [EBNA1BP2]”: in data set [1], the “solubility in G1/S (log2)” value was -1.71. The results for the melting temperature in data set [2] (cell cycle stage: G1/S) and in data set [2] (cell cycle stage: mitosis) were 54 °C and 53.4 °C, respectively. In data set [3], the “solubility change mitosis (log2)” value turned out to be 1.38. Besides, the thermal stability score is 0.765 in data set [4] (setting [5]) and 0.121 in data set [4] (cell cycle stage: mitosis).
For the substance “MAAEWASRFWLWATLLIPAAAVYEDQVGKFDWRQQYVGKVKFASLEFSPGSKKLVVATEKNVIAALNSRTGEILWRHVDKGTAEGAVDAMLLHGQDVITVSNGGRIMRSWETNIGGLNWEITLDSGSFQALGLVGLQESVRYIAVLKKTTLALHHLSSGHLKWVEHLPESDSIHYQMVYSYGSGVVWALGVVPFSHVNIVKFNVEDGEIVQQVRVSTPWLQHLSGACGVVDEAVLVCPDPSSRSLQTLALETEWELRQIPLQSLDLEFGSGFQPRVLPTQPNPVDASRAQFFLHLSPSHYALLQYHYGTLSLLKNFPQTALVSFATTGEKTVAAVMACRNEVQKSSSSEDGSMGSFSEKSSSKDSLACFNQTYTINLYLVETGRRLLDTTITFSLEQSGTRPERLYIQVFLKKDDSVGYRALVQTEDHLLLFLQQLAGKVVLWSREESLAEVVCLEMVDLPLTGAQAELEGEFGKKADGLLGMFLKRLSSQLILLQAWTSHLWKMFYDARKPRSQIKNEINIDTLARDEFNLQKMMVMVTASGKLFGIESSSGTILWKQYLPNVKPDSSFKLMVQRTTAHFPHPPQCTLLVKDKESGMSSLYVFNPIFGKWSQVAPPVLKRPILQSLLLPVMDQDYAKVLLLIDDEYKVTAFPATRNVLRQLHELAPSIFFYLVDAEQGRLCGYRLRKDLTTELSWELTIPPEVQRIVKVKGKRSSEHVHSQGRVMGDRSVLYKSLNPNLLAVVTESTDAHHERTFIGIFLIDGVTGRIIHSSVQKKAKGPVHIVHSENWVVYQYWNTKARRNEFTVLELYEGTEQYNATAFSSLDRPQLPQVLQQSYIFPSSISAMEATITERGITSRHLLIGLPSGAILSLPKALLDPRRPEIPTEQSREENLIPYSPDVQIHAERFINYNQTVSRMRGIYTAPSGLESTCLVVAYGLDIYQTRVYPSKQFDVLKDDYDYVLISSVLFGLVFATMITKRLAQVKLLNRAWR [EMC1]”, the “solubility in G1/S (log2)” value in data set [1] was determined as 0.0605. The melting temperature in data set [2] (cell cycle stage: G1/S) came out at 55.1 °C; in data set [2] (cell cycle stage: mitosis) it was 54.8 °C. Besides, the “solubility change mitosis (log2)” value in data set [3] is -0.266. The thermal stability score was 1.42 in data set [4] (setting [5]) and 1.57 in data set [4] (cell cycle stage: mitosis).
As for “MRKFAYCKVVLATSLIWVLLDMFLLLYFSECNKCDEKKERGLPAGDVLEPVQKPHEGPGEMGKPVVIPKEDQEKMKEMFKINQFNLMASEMIALNRSLPDVRLEGCKTKVYPDNLPTTSVVIVFHNEAWSTLLRTVHSVINRSPRHMIEEIVLVDDASERDFLKRPLESYVKKLKVPVHVIRMEQRSGLIRARLKGAAVSKGQVITFLDAHCECTVGWLEPLLARIKHDRRTVVCPIIDVISDDTFEYMAGSDMTYGGFNWKLNFRWYPVPQREMDRRKGDRTLPVRTPTMAGGLFSIDRDYFQEIGTYDAGMDIWGGENLEISFRIWQCGGTLEIVTCSHVGHVFRKATPYTFPGGTGQIINKNNRRLAEVWMDEFKNFFYIISPGVTKVDYGDISSRVGLRHKLQCKPFSWYLENIYPDSQIPRHYFSLGEIRNVETNQCLDNMARKENEKVGIFNCHGMGGNQVFSYTANKEIRTDDLCLDVSKLNGPVTMLKCHHLKGNQLWEYDPVKLTLQHVNSNQCLDKATEEDSQVPSIRDCNGSRSQQWLLRNVTLPEIF [GALNT1]”, in data set [1], the “solubility in G1/S (log2)” value is -0.204. The melting temperature in data set [2] (cell cycle stage: G1/S) is 53.1 °C; in data set [2] (cell cycle stage: mitosis), 52 °C. Also, in data set [3], the “solubility change mitosis (log2)” value was -0.0904. Further, the thermal stability score turned out to be 3.31 in data set [4] (setting [5]) and 5 in data set [4] (cell cycle stage: mitosis).
As for “MMNKLYIGNLSPAVTADDLRQLFGDRKLPLAGQVLLKSGYAFVDYPDQNWAIRAIETLSGKVELHGKIMEVDYSVSKKLRSRKIQIRNIPPHLQWEVLDGLLAQYGTVENVEQVNTDTETAVVNVTYATREEAKIAMEKLSGHQFENYSFKISYIPDEEVSSPSPPQRAQRGDHSSREQGHAPGGTSQARQIDFPLRILVPTQFVGAIIGKEGLTIKNITKQTQSRVDIHRKENSGAAEKPVTIHATPEGTSEACRMILEIMQKEADETKLAEEIPLKILAHNGLVGRLIGKEGRNLKKIEHETGTKITISSLQDLSIYNPERTITVKGTVEACASAEIEIMKKLREAFENDMLAVNQQANLIPGLNLSALGIFSTGLSVLSPPAGPRGAPPAAPYHPFTTHSGYFSSLYPHHQFGPFPHHHSYPEQEIVNLFIPTQAVGAIIGKKGAHIKQLARFAGASIKIAPAEGPDVSERMVIITGPPEAQFKAQGRIFGKLKEENFFNPKEEVKLEAHIRVPSSTAGRVIGKGGKTVNELQNLTSAEVIVPRDQTPDENEEVIVRIIGHFFASQTAQRKIREIVQQVKQQEQKYPQGVASQRSK [IGF2BP2]”, the “solubility in G1/S (log2)” value in data set [1] was -0.0149. Also, the results for the melting temperature in data set [2] (cell cycle stage: G1/S) and in data set [2] (cell cycle stage: mitosis) were 48.7 °C and 47.8 °C, respectively. In addition, the “solubility change mitosis (log2)” value in data set [3] is 0.0614. Moreover, the thermal stability score in data set [4] (setting [5]) was -0.347; in data set [4] (cell cycle stage: mitosis), -0.134.
As to “MLRTTRGPGLGPPLLQAALGLGRAGWHWPAGRAASGGRGRAWLQPTGRETGVQVYNSLTGRKEPLIVAHAEAASWYSCGPTVYDHAHLGHACSYVRFDIIRRILTKVFGCSIVMVMGITDVDDKIIKRANEMNISPASLASLYEEDFKQDMAALKVLPPTVYLRVTENIPQIISFIEGIIARGNAYSTAKGNVYFDLKSRGDKYGKLVGVVPGPVGEPADSDKRHASDFALWKAAKPQEVFWASPWGPGRPGWHIECSAIASMVFGSQLDIHSGGIDLAFPHHENEIAQCEVFHQCEQWGNYFLHSGHLHAKGKEEKMSKSLKNYITIKDFLKTFSPDVFRFFCLRSSYRSAIDYSDSAMLQAQQLLLGLGSFLEDARAYMKGQLACGSVREAMLWERLSSTKRAVKAALADDFDTPRVVDAILGLAHHGNGQLRASLKEPEGPRSPAVFGAIISYFEQFFETVGISLANQQYVSGDGSEATLHGVVDELVRFRQKVRQFALAMPEATGDARRQQLLERQPLLEACDTLRRGLTAHGINIKDRSSTTSTWELLDQRTKDQKSAG [CARS2]”, the “solubility in G1/S (log2)” value in data set [1] was 0.0252. Further, the melting temperature in data set [2] (cell cycle stage: G1/S) came out at 55.4 °C; in data set [2] (cell cycle stage: mitosis), 54.1 °C. Moreover, the “solubility change mitosis (log2)” value in data set [3] is -0.0653. Moreover, the thermal stability score in data set [4] (setting [5]) was 0.291; in data set [4] (cell cycle stage: mitosis), -0.0596.

Values taken from the supplement of paper PMC5998384.
